In patent US9102755B2, “Highly stabilized epidermal growth factor mutants” (PnP Biopharm Co., Ltd., priority 2013, dated 2015):

Assays:
Format in all cases: physicochemical
[1] = Structure and thermal stability (Tm) by circular dichroism; settings: 0.1 mg/ml; for Structure change: circular dichroism 190-250 nm, 20 mM sodium phosphate pH 5.5, 20° C., versus wild-type EGF; for Tm (melting temperature): circular dichroism, 20° C. to 95° C. at 1° C./min
Description: The structure and thermal stability of the purified EGF mutant were measured through a circular dichroism analysis using a J-810 spectrometer (JASCO). As the wild-type EGF, the purified EGF prepared in Example 2 was used. In order to analyze the structure, each EGF was dissolved in 20 mM sodium phosphate (pH 5.5) to be uniformly a final concentration of 0.1 mg/ml. And then, the dissolved EGF solution was added to 0.1 cm cell, and then its structure was analyzed under the conditions of, as 190 nm to 250 nm region, band width 1 nm, response 0.25 sec, data pitch 0.1 nm, scanning speed 20 nm/min, cell length 1 cm, accumulation 8 times, and a temperature of 20° C.
In order to analyze the thermal stability, a wavelength of 200 nm was determined through a comparison analysis of far-UV at the Tm (melting temperature) of 20° C. and 95° C., and progressed in a concentration of 0.1 mg/ml in 0.1 cm cell. As the conditions, it was measured at 20° C. to 95° C. under condition of 1° C./min.
The structure is changed at the band of about 195 nm when generating a folding-unfolding phenomenon. Using it, the melting temperature (Tm) was measured in the range of 20 to 95° C., and thus the accurate Tm value was analyzed. As a result, as for the structure change, most mutants had the similar structure as the wild-type EGF, and thus there were few changes. […] It can be confirmed that the thermal stabilities of M2 and M3 were improved by 87° C.

[2] = Circular dichroism after incubation at 60° C.; settings: 0.3 mg/ml, 20 mM sodium phosphate pH 5.5, 60° C., five days
Description: The stabilities of wild-type EGF and mutants should be confirmed through being stored at room temperature for a long period of time, but there is a disadvantage in that the time is too long. Therefore, the incubation test was performed at extreme environment for a short period of time. 0.3 mg/ml of each of the wild-type EGF and mutants was dissolved in 20 mM sodium phosphate (pH 5.5), and then subjected to the incubation in a water bath of 60° C. The sampling was performed per 24 hours unit, and then centrifuged at 13000 rpm and 4° C. for 15 minutes to collect the supernatant. The supernatant was diluted with 20 mM sodium phosphate (pH 5.5), and its structure was measured by using a circular dichroism. And then, the supernatant was added to 0.1 cm cell, and its structure was analyzed under the conditions of, in a region of 190 nm to 250 nm, band width 1 nm, response 0.25 sec, data pitch 0.1 nm, scanning speed 20 nm/min, cell length 1 cm, accumulation 8 times, a temperature of 20° C. […] In order to easily confirm such a result, the graph as illustrated in FIG. 3 is used using the ratio of the signal value at a first day to the signal value at 200 nm that has the biggest difference of signals. Table. […] From such a result, it can be confirmed that the EGF mutants prepared in the present invention have excellent thermal stability and solubility.

[3] = Solubility of wild-type and mutant EGFs in 20 mM sodium phosphate (pH 5.5)
Description: 1 mg of the respective wild-type and mutant EGFs prepared was dissolved in 1 ml of 20 mM sodium phosphate (pH 5.5 that is the similarly pH environment as cosmetics). In order to remove undissolved EGF, the mixture thus obtained was centrifuged and then supernatant was obtained. The concentration of the supernatant thus obtained was measured by using a Bradford method and UV method.

## D-35-6: EGF mutant, 35th valine substituted with glutamic acid (SEQ ID NO: 80) (CNCVEGYIGE)
[1]
  Structure change: No change
  Tm (melting temperature): (76° C.)
[2]
  Percentage to wild-type EGF (CD signal value at 200 nm): 100.14%

## D-34-4: EGF mutant, 34th valine substituted with lysine (SEQ ID NO: 78) (CNCKVGYIGE)
[1]
  Structure change: No change
  Tm (melting temperature): (76° C.)

## D-35-5: EGF mutant, 35th valine substituted with serine (SEQ ID NO: 79) (CNCVSGYIGE)
[1]
  Structure change: No change
  Tm (melting temperature): (76° C.)

## A-8-3: EGF mutant, eighth leucine substituted with proline (SEQ ID NO: 64) (NSDSECPPSHDGYCLHDGVCMYIEALDKYACNCVVGYIGERCQYRDLKWWELR; not fully specified; Epidermal growth factor; UniProt P01133 971-1023, looked up, variant L8P)
[1]
  Structure change: No change
  Tm (melting temperature): (76° C.)

## E-50-4: EGF mutant, 50th tryptophan substituted with serine (SEQ ID NO: 91) (RCQYRDLKWSELR)
[1]
  Structure change: No change
  Tm (melting temperature): (76° C.)

## C-26-2: EGF mutant, 26th leucine substituted with serine (SEQ ID NO: 73) (NSDSECPLSHDGYCLHDGVCMYIEASDKYACNCVVGYIGERCQYRDLKWWELR; not fully specified; Epidermal growth factor; UniProt P01133 971-1023, looked up, variant L26S)
[1]
  Structure change: No change
  Tm (melting temperature): (76° C.)

## B-19-5: EGF mutant, 19th valine substituted with lysine (SEQ ID NO: 70) (NSDSECPLSHDGYCLHDGKCMYIEALDKYACNCVVGYIGERCQYRDLKWWELR; not fully specified; Epidermal growth factor; UniProt P01133 971-1023, looked up, variant V19K)
[1]
  Structure change: No change
  Tm (melting temperature): (76° C.)

## E-50-6: EGF mutant, 50th tryptophan substituted with glutamic acid (SEQ ID NO: 93) (RCQYRDLKWEELR)
[1]
  Structure change: No change
  Tm (melting temperature): (76° C.)

## E-50-5: EGF mutant, 50th tryptophan substituted with histidine (SEQ ID NO: 92) (RCQYRDLKWHELR)
[1]
  Structure change: No change
  Tm (melting temperature): (76° C.)

## D-34-3: EGF mutant, 34th valine substituted with aspartic acid (SEQ ID NO: 77) (NSDSECPLSHDGYCLHDGVCMYIEALDKYACNCDVGYIGERCQYRDLKWWELR; not fully specified; Epidermal growth factor; UniProt P01133 971-1023, looked up, variant V34D)
[1]
  Structure change: No change
  Tm (melting temperature): (76° C.)

## D-35-7: EGF mutant, 35th valine substituted with aspartic acid (SEQ ID NO: 81) (CNCVDGYIGE)
[1]
  Structure change: No change
  Tm (melting temperature): (76° C.)

## D-38-9: EGF mutant, 38th isoleucine substituted with serine (SEQ ID NO: 83) (CNCVVGYSGE)
[1]
  Structure change: No change
  Tm (melting temperature): (76° C.)

## B-19-3: EGF mutant, 19th valine substituted with glutamic acid (SEQ ID NO: 68) (NSDSECPLSHDGYCLHDGECMYIEALDKYACNCVVGYIGERCQYRDLKWWELR; not fully specified; Epidermal growth factor; UniProt P01133 971-1023, looked up, variant V19E)
[1]
  Structure change: No change
  Tm (melting temperature): (76° C.)
[2]
  Percentage to wild-type EGF (CD signal value at 200 nm): 84.22%

## E-48-3: EGF mutant, 48th lysine substituted with arginine (SEQ ID NO: 90) (RCQYRDLRWWELR)
[1]
  Structure change: No change
  Tm (melting temperature): (76° C.)

## B-19-2: EGF mutant, 19th valine substituted with serine (SEQ ID NO: 67) (NSDSECPLSHDGYCLHDGSCMYIEALDKYACNCVVGYIGERCQYRDLKWWELR; not fully specified; Epidermal growth factor; UniProt P01133 971-1023, looked up, variant V19S)
[1]
  Structure change: No change
  Tm (melting temperature): (76° C.)

## D-38-12: EGF mutant, 38th isoleucine substituted with aspartic acid (SEQ ID NO: 86) (CNCVVGYDGE)
[1]
  Structure change: No change
  Tm (melting temperature): (76° C.)

## A-8-2: EGF mutant, eighth leucine substituted with serine (SEQ ID NO: 63) (NSDSECPSSHDGYCLHDGVCMYIEALDKYACNCVVGYIGERCQYRDLKWWELR; not fully specified; Epidermal growth factor; UniProt P01133 971-1023, looked up, variant L8S)
[3]; 1 mg in 1 ml 20 mM sodium phosphate pH 5.5, supernatant, Bradford and UV method
  Solubility: 0.6991 mg/mL
[3]; 20 mM sodium phosphate pH 5.5, relative to wild-type EGF
  Solubility (Comparison with wild-type %): 137%
[1]
  Structure change: No change
  Tm (melting temperature): (76° C.)

## D-35-8: EGF mutant, 35th valine substituted with lysine (SEQ ID NO: 82) (CNCVKGYIGE)
[1]
  Structure change: No change
  Tm (melting temperature): (76° C.)

## D-38-11: EGF mutant, 38th isoleucine substituted with glutamic acid (SEQ ID NO: 85) (CNCVVGYEGE)
[1]
  Structure change: No change
  Tm (melting temperature): (76° C.)

## D-34-2: EGF mutant, 34th valine substituted with glutamic acid (SEQ ID NO: 76) (NSDSECPLSHDGYCLHDGVCMYIEALDKYACNCEVGYIGERCQYRDLKWWELR; not fully specified; Epidermal growth factor; UniProt P01133 971-1023, looked up, variant V34E)
[1]
  Structure change: No change
  Tm (melting temperature): (76° C.)
[2]
  Percentage to wild-type EGF (CD signal value at 200 nm): 111.10%

## A-4-1: EGF mutant, fourth serine substituted with glutamic acid (SEQ ID NO: 62) (NSDEECPLSHDGYCLHDGVCMYIEALDKYACNCVVGYIGERCQYRDLKWWELR; not fully specified; Epidermal growth factor; UniProt P01133 971-1023, looked up, variant S4E)
[1]
  Structure change: No change
  Tm (melting temperature): (76° C.)

## B-19-4: EGF mutant, 19th valine substituted with aspartic acid (SEQ ID NO: 69) (NSDSECPLSHDGYCLHDGDCMYIEALDKYACNCVVGYIGERCQYRDLKWWELR; not fully specified; Epidermal growth factor; UniProt P01133 971-1023, looked up, variant V19D)
[1]
  Structure change: No change
  Tm (melting temperature): (76° C.)

## D-34-1: EGF mutant, 34th valine substituted with serine (SEQ ID NO: 75) (NSDSECPLSHDGYCLHDGVCMYIEALDKYACNCSVGYIGERCQYRDLKWWELR; not fully specified; Epidermal growth factor; UniProt P01133 971-1023, looked up, variant V34S)
[1]
  Structure change: No change
  Tm (melting temperature): (76° C.)
